Assay results as given in article PMC4934132.

Target: HPV16 L1 pentamers (L1 assembly mutant C428S) (HPV16)
Test: electron microscopy

## HPV16 L1 pentamers (L1 assembly mutant C428S) (natural protein)
  stoichiometry N: 5
